{"source": "paper PMC6883096", "key": {"[1]": {"target": "DS428 (BaxA I51V) (Bacillus amyloliquefaciens)"}, "[2]": {"target": "recombinant Bacillus amyloliquefaciens xylanase A (reBaxA) (Bacillus amyloliquefaciens)"}, "[3]": {"target": "catalytic domain of Thermomonospora fusca TF xylanase A (TfxA_CD) (Thermomonospora fusca TF)"}, "[4]": {"target": "DS241 (BaxA S31R) (Bacillus amyloliquefaciens)"}, "[5]": {"target": "DS153 (BaxA N29S) (Bacillus amyloliquefaciens)"}}}
{"binder": "recombinant rice xylanase inhibitor (rePRIXI) (natural protein) AGKTGQMTVFWGRNKNEGTLKETCDTGLYTTVVISFYSVFGHGRYWGDLSGHDLRVIGADIKHCQSKNIFVFLSIGGAGKDYSLPTSKSAADVADNIWNAHMDGRRPGVFRPFGDAAVDGIDFFIDQGAPDHYDDLARNLYAYNKMYRARTPVRLTATVRCAFPDPRMKKALDTKLFERIHVRFYDDATCSYNHAGLAGVMAQWNKWTARYPGSHVYLGLAAANVPGKNDNVFIKQLYYDLLPNVQKAKNYGGIMLWDRFYDKQTGYGKTVKYWA", "values": [{"measurement": "inhibitory rate of xylanase activity after incubation of the xylanase with rePRIXI at 50°C for 40 min (residual activity on beechwood xylan)", "setting": "[1]", "value": 11.3, "unit": "%"}, {"measurement": "inhibitory rate of xylanase activity after incubation of the xylanase with rePRIXI at 50°C for 40 min (residual activity on beechwood xylan)", "setting": "[2]", "value": 30.3, "unit": "%"}, {"measurement": "inhibitory rate of xylanase activity after incubation of the xylanase with rePRIXI at 50°C for 40 min (residual activity on beechwood xylan)", "setting": "[3]", "value": 11.2, "unit": "%"}, {"measurement": "inhibitory rate of xylanase activity after incubation of the xylanase with rePRIXI at 50°C for 40 min (residual activity on beechwood xylan)", "setting": "[4]", "value": 20.5, "unit": "%"}, {"measurement": "inhibitory rate of xylanase activity after incubation of the xylanase with rePRIXI at 50°C for 40 min (residual activity on beechwood xylan)", "setting": "[5]", "value": 14.8, "unit": "%"}]}
